Data on two proteins can be found in article PMC10212915, “An ancient metabolite damage-repair system sustains photosynthesis in plants” (Nature Communications, 2023).

Holding throughout (experiment): malachite green phosphate release assay
Common to all, as to assay type: biochemical, Arabidopsis thaliana
What all share (settings): MOPS-KOH pH 7.5, 100 mM KCl, 10 mM MgCl2, 25 °C

Substrate in data set [1]: O=C(COP(=O)(O)O)[C@@H](O)[C@H](O)COP(=O)(O)O
An excerpt:
(§1) malachite green phosphate release assay on MBP-AtCbbYB

Substrate in data set [2]: O=C(COP(=O)(O)O)[C@H](O)[C@H](O)COP(=O)(O)O
From the text: as §1

Substrate in data set [3]: O=C(COP(=O)(O)O)[C@@H](O)[C@H](O)COP(=O)(O)O
An excerpt: (§2) malachite green phosphate release assay on MBP-AtCbbYA
The source holds these as a separate data set.

Substrate in data set [4]: O=C(COP(=O)(O)O)[C@H](O)[C@H](O)COP(=O)(O)O
From the text: as §2
This is another data set of the same source.

B1: MBP-AtCbbYB (Arabidopsis thaliana) (protein)
chain: SKSRVSSPVSALPLRSLEALIFDCDGVILESENLHRQAYNDAFSHFDVRCPPSSSESLDWSLEFYDKFQNLVGGGKPKMRWYFKENGWPTSTIFDSPPQNDDDRAKLIDTLQDWKTERYKEIIKSGSVEPRPGVIRLMDEAKAAGKKLAVCSAATKSSVILCLENLIDIERFQGLDCFLAGDDVKEKKPDPSIYITAAEKLGVSVKDCLVVEDSVIGLQAATKAGMSCVITYTSSTSDQNFNDAIAVYPDLSNVKLKDLETLLQTIVTAA
A word on the Km: it is the substrate concentration at which the rate is half of its maximum. The term kcat denotes the number of substrate molecules converted per active site and unit of time at saturation. In general, kcat/Km refers to the turnover number divided by the Michaelis constant. Regarding B1, in data set [1], the Km was determined as 182 ± 30 µM, the kcat is 0.54 ± 0.05 s⁻¹ and the kcat/Km was 3000 M⁻¹ s⁻¹. Also, in data set [2], the Km was found to be 4840 ± 360 µM, the kcat was determined as 0.015 ± 0.002 s⁻¹ and the kcat/Km came out at 3.2 ± 0.4 M⁻¹ s⁻¹.

B2: MBP-AtCbbYA (Arabidopsis thaliana) (protein)
chain: CSASSSLTTLPSALLFDCDGVLVDTEKDGHRISFNDTFKERDLNVTWDVDLYGELLKIGGGKERMTAYFNKVGWPEKAPKDEAERKEFIAGLHKQKTELFMVLIEKKLLPLRPGVAKLVDQALTNGVKVAVCSTSNEKAVSAIVSCLLGPERAEKIKIFAGDVVPKKKPDPAIYNLAAETLGVDPSKCVVVEDSAIGLAAAKAAGMTCIVTKSGYTADEDFENADAVFDCIGDPPEERFDLAFCGSLLRKQFVS
Turning to B2, in data set [3], the Michaelis constant (Km) was determined as 40 ± 1 µM, the kcat was 2.13 ± 0.04 s⁻¹ and the kcat/Km came to 53000 ± 2000 M⁻¹ s⁻¹. Also, in data set [4], the Km was found to be 4310 ± 110 µM, the kcat came to 0.043 ± 0.009 s⁻¹ and the kcat/Km turned out to be 10 ± 2 M⁻¹ s⁻¹.
